From publication PMC6429962 (Cell reports, 2019)

T1: myc-tagged xFZD8 CRD (cysteine-rich domain of Xenopus Frizzled-8) (Xenopus, UniProt O93274 24-144)
T1 sequence (looked up): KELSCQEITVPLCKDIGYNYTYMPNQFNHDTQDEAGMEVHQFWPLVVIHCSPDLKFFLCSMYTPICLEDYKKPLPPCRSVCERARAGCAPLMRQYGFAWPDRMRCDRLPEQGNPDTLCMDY


Biological target: T1, myc-tagged xFZD8 CRD (cysteine-rich …)
Assay: co-IP

Row | Binder | fold more efficient co-immunoprecipitation than xWnt8^S187A [fold] | fold reduction of apparent CRD binding strength against the wild type [fold]
1 | wild-type Xenopus Wnt8 (xWnt8^WT) (ligand, UniProt P28026 23-358, looked up, acylation site S187 (palmitoleoyl chain), as the paper says of the wild type) AWSVNNFLMTGPKAYLTYSASVAVGAQNGIEECKYQFAWERWNCPESTLQLATHNGLRSATRETSFVHAISSAGVMYTLTRNCSMGDFDNCGCDDSRNGRIGGRGWVWGGCSDNAEFGERISKLFVDGLETGQDARALMNLHNNEAGRLAVKETMKRTCKCHGISGSCSIQTCWLQLAEFRDIGNHLKIKHDQALKLEMDKRKMRSGNSADNRGAIADAFSSVAGSELIFLEDSPDYCLKNISLGLQGTEGRECLQSGKNLSQWERRSCKRLCTDCGLRVEEKKTEIISSCNCKFHWCCTVKCEQCKQVVIKHFCARRERDSNMLNTKRKNRGHRR | ~10 | 
2 | human Wnt3a lacking the acylation site (hWnt3a^S209A) (ligand, UniProt P56704 19-352, looked up) SYPIWWSLAVGPQYSSLGSQPILCASIPGLVPKQLRFCRNYVEIMPSVAEGIKIGIQECQHQFRGRRWNCTTVHDSLAIFGPVLDKATRESAFVHAIASAGVAFAVTRSCAEGTAAICGCSSRHQGSPGKGWKWGGCSEDIEFGGMVSREFADARENRPDARSAMNRHNNEAGRQAIASHMHLKCKCHGLAGSCEVKTCWWSQPDFRAIGDFLKDKYDSASEMVVEKHRESRGWVETLRPRYTYFKVPTERDLVYYEASPNFCEPNPETGSFGTRDRTCNVSSHGIDGCDLLCCGRGHNARAERRREKCRCVFHWCCYVSCQECTRVYDVHTCK |  | ~10
